Laboratory results as given in PMC2901993 (Biochemical and biophysical research communications, 2010).
Positions count from the first letter of the chain named.

B1: PRM-2 (ssRNA)
RNA: UCUGAGCCCUGAGCUGCCAAGGAGCCACGAGAUCUGAGU
B2: PRM-2 Variant 1 (ssRNA)
RNA: B1 RNA with G11C, G13C
B3: PRM-2 Variant 2 (ssRNA)
RNA: B1 RNA with G29C, G31C
B4: PRM-2 Variant 3 (ssRNA)
RNA: B1 RNA with G11C, G13C, G29C, G31C
B5: rGAG (ssRNA)
RNA: AGAGGAGGAGGAGGAGGAGGAGGAG
B6: PRM-2(1-30) (ssRNA)
RNA: UCUGAGCCCUGAGCUGCCAAGGAGCCACGA
B7: dPRM-2 (ssDNA)
DNA: TCTGAGCCCTGAGCTGCCAAGGAGCCACGAGATCTGAGT

What was measured:
[1] = target: translin (in translin-trax complex);trax (translin-associated factor X) (Mus musculus;Mus musculus, UniProt Q62348;Q9QZE7 1-228;1-290, |); test: fluorescence polarization
Sequence of translin (in translin-trax complex);trax (translin-associated factor X) (Q62348 whole entry, chain 1 of 2): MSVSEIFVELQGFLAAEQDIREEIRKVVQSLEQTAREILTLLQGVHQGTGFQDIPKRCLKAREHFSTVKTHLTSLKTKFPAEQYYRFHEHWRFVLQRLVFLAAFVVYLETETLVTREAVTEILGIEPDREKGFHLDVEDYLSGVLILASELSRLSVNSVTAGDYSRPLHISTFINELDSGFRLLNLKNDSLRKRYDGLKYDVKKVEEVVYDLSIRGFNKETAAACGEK
Sequence of translin (in translin-trax complex);trax (translin-associated factor X) (Q9QZE7 whole entry, chain 2 of 2): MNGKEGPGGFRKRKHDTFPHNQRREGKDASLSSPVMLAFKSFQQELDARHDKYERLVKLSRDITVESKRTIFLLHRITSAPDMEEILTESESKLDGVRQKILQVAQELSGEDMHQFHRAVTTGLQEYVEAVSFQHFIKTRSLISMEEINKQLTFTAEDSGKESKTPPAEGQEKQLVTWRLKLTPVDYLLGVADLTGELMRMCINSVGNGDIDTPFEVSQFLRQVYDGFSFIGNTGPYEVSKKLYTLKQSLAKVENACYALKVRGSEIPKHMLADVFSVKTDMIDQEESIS

translin (TB-RBP) = translin (TB-RBP) (Mus musculus, UniProt Q62348 1-228); test: fluorescence polarization
Sequence of translin (TB-RBP) (Q62348 whole entry): as the sequence (Q62348 whole entry, chain 1 of 2) above

| Binder | Kd [1] | Kd (translin (TB-RBP)) |
| --- | --- | --- |
| B1 | 40000 nM | 200 nM |
| B2 |  | 1000 nM |
| B3 |  | 200 nM |
| B4 |  | 300 nM |
| B5 |  | 500 nM |
| B6 |  | 200 nM |
| B7 | 4000 nM | 10000 nM |
